From US20040219514A1, “Caml-binding peptides” (priority 2000, published 2004)

What was measured:
CAML = molecular target: T1, CAML (Homo sapiens, UniProt P49069); conditions: published reports on human TACI fragments; cited from earlier work
T1 sequence (P49069 1-296): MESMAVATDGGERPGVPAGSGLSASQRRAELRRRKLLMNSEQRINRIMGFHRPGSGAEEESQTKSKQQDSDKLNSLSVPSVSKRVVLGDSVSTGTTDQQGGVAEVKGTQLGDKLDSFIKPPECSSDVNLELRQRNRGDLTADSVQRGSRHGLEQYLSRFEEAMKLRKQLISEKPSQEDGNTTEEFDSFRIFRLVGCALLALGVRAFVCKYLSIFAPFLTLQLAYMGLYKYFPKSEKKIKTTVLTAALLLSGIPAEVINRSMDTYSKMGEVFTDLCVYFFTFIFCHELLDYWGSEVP

U937 cells [1] = assay: Arachidonic acid release assay; format: cell-based, human
Procedure: (§1) Generation of stable U937 cell lines expressing E3/6.7K U937 human histiocytic lymphoma cells obtained from ATCC (CRL 1593) were maintained in RPMI 1640, 10% FCS, 2 mM L-glutamine, 10 mM HEPES, 100 U/ml penicillin and 100 μg/ml streptomycin in an atmosphere of 5% CO2 and 100% humidity. Cells were transfected with the appropriate construct by using the DMRIE-C cationic lipid reagent available from Life Technologies using the manufacturer's protocol. Transfected cells were maintained in medium containing geneticin G-418 sulphate at a final concentration of 800 μg/ml. Media and supplements were purchased from Life Technologies. Subclones of the transfected cell lines were generated by serial dilution and examined for expression of E3/6.7K by Northern Blotting. The expression of E3/6.7K mRNA was very similar in all the clones examined. All the G-418 resistant cells that survived the selection procedure were pooled and used for the in vitro assays, in order to avoid clonal variations known to arise in U937 cells.
Arachidonic acid release assays. […] After 20 hours of treatment the cells were centrifuged and 100 μl of supernatant out of 500 μl total was mixed with 3 ml scintillation fluid and counted. […] The counts per minute of released [3H] arachidonic acid were expressed as a percentage of the average of total incorporated [3H] arachidonic acid.

calcium ions from the ER = assay: Efflux of calcium ions from the ER; format: cell-based; conditions: in the presence of E3/6.7K
U937 cells [2] = assay: Annexin V-FACS apoptosis assay; format: cell-based, human
Procedure: as §1
Annexin V-FACS apoptosis assay. Annexin V-FITC (PharMingen) was used to determine the binding of Annexin V to externalized phosphatidyl serine. […] One sample of cells was not stained and used to set up the baseline fluorescence. The cells were examined with a fluorescence-activated cell sorter SACS) on a Beckton Dickson FACS Analyzer.

full length CAML [3] = molecular target: T2, full length CAML (Mus musculus, UniProt P49070); assay: Yeast two-hybrid interaction; format: binding; conditions: GAL4 bait/prey
T2 construct: expressed in transfected cells; host or cells: Saccharomyces cerevisiae AH109
T2 sequence (P49070 1-294): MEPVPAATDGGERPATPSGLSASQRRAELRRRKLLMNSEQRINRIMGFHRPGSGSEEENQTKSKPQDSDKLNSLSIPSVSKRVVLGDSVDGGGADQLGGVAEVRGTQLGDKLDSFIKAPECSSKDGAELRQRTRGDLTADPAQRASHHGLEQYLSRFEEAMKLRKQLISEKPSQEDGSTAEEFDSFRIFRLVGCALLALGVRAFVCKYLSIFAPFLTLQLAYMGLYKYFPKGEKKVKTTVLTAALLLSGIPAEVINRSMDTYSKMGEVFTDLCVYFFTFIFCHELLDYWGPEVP
From the text: (§2) pBD-6.7, a bait vector containing E3/6.7, was constructed by subdloning full length E3/6.7K cDNA in frame into the C terminus of the GAL4 DNA binding domain of vector pGBKT7 (CLONTECH). pAD-CAML was constructed by subcloning full length CAML in frame into the C terminus of the GAL4 activation domain of the prey vector pGADT7 (CLONTECH). pAD-CAML(201) was constructed by subdloning amino acids 1 to 201 of CAML in frame into the C terminus of the GAl4 activation domain of the prey vector pGADT7. The fidelity of the constructs was confirmed by sequencing.
(§3) Yeast Transformation and Selection. p]3D-6.7 and pAD-CAML or pAD-CAML(201) were transformed together into Saccharomyces cerevisiae AH109 using the Lithium Acetate Yeast Transformation procedure as described by Gietz, D., et al. (1992) Nucleic Acids Res., 20:1425. Control cotransformation of p3D-53 /pAD-T and pBD-Lam/pAD-T were also done. pBD-53/pAD-T encode fusions between the GAL4 DNA-BD and AD and murine p53 and SV40 large T-antigen, respectively. p53 and large T-antigen interact in a yeast two-hybrid assay. pBD-Lam encodes a fusion of the DNA-BD with human lamin C and provides a negative control for an interaction with pAD-T. For yeast selection, pBD containing the […] gene was selected on synthetic drop out media lacking tryptophan (SD-T). pAD contains the LEU2 gene and was selected for on SD-L (leucine).
(§4) CAML-Binding with SED. The yeast two hybrid system takes advantage of the GAL4 transcriptional activator which consists of two separable and functionally essential domains: a DNA binding domain and a domain that activates transcription. A bait gene (fragments of the E3/6.7K gene) was expressed as a fusion to the GAL4 DNA-binding domain (ED), while a prey gene (CAML) was expressed as a fusion to the GAL4 activation domain (AD). When bait and prey fusion proteins interact, the BD and AD are brought into proximity, thus activating transcription of reporter genes.

full length CAML [4] = molecular target: T3, full length CAML (Homo sapiens, UniProt P49069); assay: Yeast two-hybrid interaction; format: binding
T3 construct: expressed in transfected cells; host or cells: Saccharomyces cerevisiae AH109
T3 sequence (P49069 1-296): T1 sequence (P49069 1-296)
From the text: as §2, §3, §4

[5] = molecular target: T4, amino acids 1 to 201 of CAML (Homo sapiens, UniProt P49069); assay: Yeast two-hybrid interaction; format: binding
T4 construct: subdloning amino acids 1 to 201 of CAML in frame; expressed in transfected cells; host or cells: Saccharomyces cerevisiae AH109
T4 sequence (P49069 1-201): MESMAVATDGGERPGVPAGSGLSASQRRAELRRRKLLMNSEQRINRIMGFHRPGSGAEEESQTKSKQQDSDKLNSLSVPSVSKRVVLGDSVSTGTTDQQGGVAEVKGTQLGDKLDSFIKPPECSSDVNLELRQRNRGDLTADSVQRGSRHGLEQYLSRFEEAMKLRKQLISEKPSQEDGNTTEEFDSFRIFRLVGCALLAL
From the text: as §2, §3, §4

B1: amino acids 1-168 of human TACI: fragment of human transmembrane activator and CAML interactor (TACI), amino acids 1-168 (protein, UniProt O14836 1-168, looked up, fragment)
chain: MSGLGRSRRGGRSRVDQEERFPQGLWTGVAMRSCPEEQYWDPLLGTCMSCKTICNHQSQRTCAAFCRSLSCRKEQGKFYDHLLRDCISCASICGQHPKQCAYFCENKLRSPVNLPPELRRQRSGEVENNSDNSGRYQGLEHRGSEASPALPGLKLSADQVALVYSTLG
CAML-binding (CAML): did not occur

B2: amino acids 1-212: fragment of human TACI, amino acids 1-212 (protein, UniProt O14836 1-212, looked up, fragment)
chain: MSGLGRSRRGGRSRVDQEERFPQGLWTGVAMRSCPEEQYWDPLLGTCMSCKTICNHQSQRTCAAFCRSLSCRKEQGKFYDHLLRDCISCASICGQHPKQCAYFCENKLRSPVNLPPELRRQRSGEVENNSDNSGRYQGLEHRGSEASPALPGLKLSADQVALVYSTLGLCLCAVLCCFLVAVACFLKKRGDPCSCQPRSRPRQSPAKSSQDH
CAML-binding (CAML): capable of binding to CAML

B3: 1-233 of human TACI: fragment of human TACI, amino acids 1-233 (protein, UniProt O14836 1-233, looked up, fragment)
chain: MSGLGRSRRGGRSRVDQEERFPQGLWTGVAMRSCPEEQYWDPLLGTCMSCKTICNHQSQRTCAAFCRSLSCRKEQGKFYDHLLRDCISCASICGQHPKQCAYFCENKLRSPVNLPPELRRQRSGEVENNSDNSGRYQGLEHRGSEASPALPGLKLSADQVALVYSTLGLCLCAVLCCFLVAVACFLKKRGDPCSCQPRSRPRQSPAKSSQDHAMEAGSPVSTSPEPVETCSFC
CAML-binding (CAML): capable of binding to CAML

B4: E3/6.7K: 6.7K protein encoded by the adenovirus E3 region; integral membrane protein localized to the endoplasmic reticulum; expressed from transfected Ad2 cDNA (protein)
chain: MSNSSNSTSLSNFSGIGVGVILTLVILFILILALLCLRVAACCTHVCTYCQLFKRWGQHPR
modifications: Adenovirus, Ad2 E3/6.7K
notes: 6.7K protein encoded by the adenovirus E3 region; integral membrane protein localized to the endoplasmic reticulum; expressed from transfected Ad2 cDNA
reduction of release of [3H] arachidonic acid compared to U937neor (U937 cells [1]; U937-E3/6.7K cells, TNF-α and cycloheximide (CHX)): 60%
decrease of [3H] arachidonic acid release compared with U937 cells transfected with vector alone (U937 cells [1]; U937 cells transfected with E3/6.7K cDNA, stimulated with TNF-α): 50%
efflux of calcium ions from the ER (calcium ions from the ER): reduced
reduction in apoptosis compared to U937neor (U937 cells [2]; U937-E3/6.7K cells, combination of TNF-α and CHX): 65%
reduction in percentage of apoptotic cells compared with U937neor (U937 cells [2]; cells expressing E3/6.7K, stimulation with TNF-α): 55%
interaction with CAML (full length CAML [3]): interacts
interaction with CAML (full length CAML [4]; full length human CAML, GAL4 bait/prey): interacts
growth of yeast on interaction-selective media (full length CAML [4]; pBD-6.7 and pAD-CAML in S. cerevisiae AH109, SD-LTHX or SD-AHLTX): able to grow on both SD-LTHX or SD-AHLTX
interaction with CAML ([5]; 1-201 residue domain of CAML, GAL4 bait/prey): interacts
growth of yeast on interaction-selective media ([5]; pBD-6.7 and pAD-CAML(201) in S. cerevisiae AH109, SD-LTHX or SD-AHLTX): able to grow on both SD-LTHX or SD-AHLTX
